Key:
M1R-G11CT [1] = target: T1, M1R-G11CT (Homo sapiens (from template PDB 6OIJ), UniProt P11229, chimera); experiment: flow cytometry on cells; nanobody displayed on yeast, single colonies; stained with 10 nM fluorescence-labeled purified FLAG-tagged receptor (atropine-bound M1R-Clip1 or iperoxo-bound M1R-G11CT), Alexa Fluor-647 anti-FLAG and Alexa Fluor-488 anti-HA; selection buffer 20 mM HEPES pH 7.5, 100 mM NaCl, 0.05% MNG, 0.005% CHS, 2 mM CaCl2, 0.1% BSA, 0.2% maltose; conditions: one partner purified
T1 construct: M1 muscarinic acetylcholine receptor (M1R), N-terminal part through TM5 up to the fusion site T215 (5.65); de novo designed fusion protein (RFdiffusion, ProteinMPNN, AlphaFold2) put between T215 and A364 in place of ICL3; M1 muscarinic acetylcholine receptor (M1R), from the fusion site A364 (6.34) in TM6 to the C-terminus of the receptor; 2×GGSGG linker between the C-terminus of the receptor and …

M1R-G11CT [2] = target: T1, M1R-G11CT; experiment: cryo-EM structure; purified M1R-nanobody complexes on Au Quantifoil grids; Nb1B4 with M1R-G11CT and iperoxo, NbA12 with M1R-Clip1 and atropine; conditions: both partners purified
Target sequence in this assay (P11229 whole entry, stated change not applied, the tested form may be a part): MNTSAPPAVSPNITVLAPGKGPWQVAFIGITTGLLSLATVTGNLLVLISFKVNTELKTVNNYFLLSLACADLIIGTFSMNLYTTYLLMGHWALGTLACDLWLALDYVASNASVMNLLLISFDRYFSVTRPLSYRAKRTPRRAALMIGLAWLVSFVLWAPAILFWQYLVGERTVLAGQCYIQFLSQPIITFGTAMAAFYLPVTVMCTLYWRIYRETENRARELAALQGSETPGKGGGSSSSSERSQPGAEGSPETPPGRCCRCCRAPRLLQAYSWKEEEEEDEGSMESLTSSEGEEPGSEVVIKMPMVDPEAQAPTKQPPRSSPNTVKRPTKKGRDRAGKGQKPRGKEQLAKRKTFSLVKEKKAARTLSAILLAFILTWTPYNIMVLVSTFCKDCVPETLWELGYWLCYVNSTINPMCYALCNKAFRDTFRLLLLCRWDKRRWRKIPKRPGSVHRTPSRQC

| binding result (M1R-G11CT [1]) | binding result (M1R-G11CT [2]) | Binder |
| --- | --- | --- |
| binds | – | Nb1B4 displayed on yeast (VHH, Yeast display fusion; also called active-state selective nanobody) VHH: QVQLQESGGGLVQAGGSLRLSCAASGSIFYGYYMGWYRQAPGKEREFVATINYGASTNYADSVKGRFTISRDNAKNTVYLQMNSLKPEDTAVYYCAVRRVYVYVQRYYHYYWGQGTQVTVSS |
| – | binds | Nb1B4, purified (VHH, also called active-state selective nanobody; source: E. coli BL21(DE3) periplasm or HEK293F supernatant, purified (Ni-NTA, SEC)) VHH: QVQLQESGGGLVQAGGSLRLSCAASGSIFYGYYMGWYRQAPGKEREFVATINYGASTNYADSVKGRFTISRDNAKNTVYLQMNSLKPEDTAVYYCAVRRVYVYVQRYYHYYWGQGTQVTVSS |
